The text below walks through data of article PMC8455617 (2021).

Experiment [1] concerns the target Mitochondrial citrate synthase (CS) (UniProt P00889). The experiment can be described thus: Microscale thermophoresis (MST), Monolith NT.115, nano-red excitation, MST power 40%, excitation power 80%. The following applies: 23 °C, 0.1 M potassium phosphate, no further salt stated, 0.1 M potassium phosphate at pH 6, 7 or 8 (the same buffer species at all pH values). (In general: Microscale thermophoresis detects binding through changes in fluorescence in a small temperature gradient.)

Experiment [2] concerns the target T1, citrate synthase, mitochondrial (Sus scrofa, UniProt P00889).
T1 chain: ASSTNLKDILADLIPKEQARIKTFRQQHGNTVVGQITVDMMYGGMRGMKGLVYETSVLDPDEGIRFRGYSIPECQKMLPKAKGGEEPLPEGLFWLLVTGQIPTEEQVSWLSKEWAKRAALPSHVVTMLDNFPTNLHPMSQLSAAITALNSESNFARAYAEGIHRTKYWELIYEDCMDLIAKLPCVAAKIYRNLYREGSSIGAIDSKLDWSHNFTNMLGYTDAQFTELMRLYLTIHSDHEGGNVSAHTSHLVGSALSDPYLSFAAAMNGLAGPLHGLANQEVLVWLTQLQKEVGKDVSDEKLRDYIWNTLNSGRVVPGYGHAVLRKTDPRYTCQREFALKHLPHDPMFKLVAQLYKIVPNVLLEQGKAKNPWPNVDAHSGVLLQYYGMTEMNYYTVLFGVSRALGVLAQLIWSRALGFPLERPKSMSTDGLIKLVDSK
The experiment can be described thus: MST (pH 7).

Experiment [3] deals with T1, citrate synthase, mitochondrial. The experiment can be described thus: MST (pH 6).
For experiment [4] the target is unchanged. Description: MST.

On to “Mitochondrial malate dehydrogenase (MDH), fluorescently labelled”, for which the Kd in experiment [1] (pH 6) came out at 680 ± 50 nM; in experiment [1] (pH 7) it was 1600 ± 450 nM; in experiment [1] (pH 8) it was 2290 ± 460 nM.

B1: malate dehydrogenase, mitochondrial (protein)
chain: AKVAVLGASGGIGQPLSLLLKNSPLVSRLTLYDIAHTPGVAADLSHIETRATVKGYLGPEQLPDCLKGCDVVVIPAGVPRKPGMTRDDLFNTNATIVATLTAACAQHCPDAMICIISNPVNSTIPITAEVFKKHGVYNPNKIFGVTTLDIVRANAFVAELKGLDPARVSVPVIGGHAGKTIIPLISQCTPKVDFPQDQLSTLTGRIQEAGTEVVKAKAGAGSATLSMAYAGARFVFSLVDAMNGKEGVVECSFVKSQETDCPYFSTPLLLGKKGIEKNLGIGKISPFEEKMIAEAIPELKASIKKGEEFVKNMK
For the molecule B1, the Kd in experiment [2] is 1600 nM; in experiment [3], 680 nM; in experiment [4] it was 2290 nM.

B2: malate dehydrogenase, mitochondrial (protein)
chain: B1 chain
modifications: 10 mM NAD+
Consider B2, for which the affinity in experiment [4], expressed as Kd, was 890 nM.

B3: malate dehydrogenase, mitochondrial (protein)
chain: B1 chain
modifications: 10 mM acetyl-CoA
In experiment [4], B3 returned a Kd of 1100 nM.

B4: malate dehydrogenase, mitochondrial (protein)
chain: B1 chain
modifications: 10 mM fumarate
On to B4, for which the Kd in experiment [4] amounted to 1580 nM.

As usually defined, the Kd is the concentration at which binding is half-saturated.
